Measurements published in patent EP4582447A1 (Quaerite Biopharm Research (Beijing) Co., Ltd., dated 2025).
Where two headings read alike, the source gives them in different places.

How the values were obtained:
[1] = molecular target: T1, Human VEGFA165 (human, UniProt P15692-4 27-191); experiment: phage ELISA, VEGFA coated 0.5 µg/mL, anti-M13(HRP)
T1 construct: treated as the same molecule; also called antigen VEGFA
Target sequence in this assay (P15692 other isoform, or with tags, fused parts or gaps limits assumed): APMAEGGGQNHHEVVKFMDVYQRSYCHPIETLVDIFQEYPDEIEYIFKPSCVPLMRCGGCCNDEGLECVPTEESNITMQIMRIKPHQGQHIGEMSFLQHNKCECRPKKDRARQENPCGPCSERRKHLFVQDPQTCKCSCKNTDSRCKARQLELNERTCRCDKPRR

[2] = molecular target: T1, Human VEGFA165; experiment: cell-based or functional assay
Target sequence in this assay (P15692 other isoform, or with tags, fused parts or gaps limits assumed): as above

[3] = molecular target: T1, Human VEGFA165; experiment: SPR Biacore 8K, VEGFA165 amine-coupled on CM5, nanobody as analyte, 1:1 model
Target sequence in this assay (P15692 other isoform, or with tags, fused parts or gaps limits assumed): as above

[4] = molecular target: 3% milk powder (negative control); experiment: phage ELISA, 3% milk powder coated (negative control), anti-M13(HRP)
[5] = molecular target: T1, Human VEGFA165; experiment: SPR, VEGFA165 on CM5
[6] = molecular target: T1, Human VEGFA165; experiment: competition ELISA on coated VEGFA, competitor VEGFR2-ECD-Fc 1 nM
Target sequence in this assay (P15692 other isoform, or with tags, fused parts or gaps limits assumed): as above

[7] = molecular target: T1, Human VEGFA165; experiment: phage ELISA, VEGFA coated 0.5 µg/mL, anti-M13(HRP)
Target sequence in this assay (P15692 other isoform, or with tags, fused parts or gaps limits assumed): as above

[8] = molecular target: T1, Human VEGFA165; experiment: ELISA, VEGFA coated 0.3 µg/mL, anti-His detection
Target sequence in this assay (P15692 other isoform, or with tags, fused parts or gaps limits assumed): as above

[9] = molecular target: T1, Human VEGFA165; experiment: phage ELISA, VEGFA coated 0.5 µg/mL, anti-M13(HRP); remark: listed apart in the source
[10] = molecular target: T1, Human VEGFA165; experiment: ELISA, VEGFA coated 0.3 µg/mL, anti-His detection; remark: listed apart in the source

Row | Binder | OD450 [1] | Kd [3] | koff [3] | kon [3] | OD450 [4] | fold difference of KD from the positive control BI-VEGF ab [5] | IC50 [6] | Maximum inhibition rate (%) [6] | OD450 [7] | further results
1 | V13 (VHH, Purified with C-terminal GGGGS-6×His; also called candidate antibody V13) VHH: QLQLVESGGGSVQPGGSLRLSCEVSGRTFTSYTMGWFRQAPGKEREFVVAISKGGYKYDAVSLEARFTISKDNTKNTVYLQMNSLKPEDTAVYYCAGTRAYGSSRLRLADTYEYWGQGTQVTVSS | 2.14 OD450 | 0.224 nM | 8.65e-05 s⁻¹ | 386000 M⁻¹ s⁻¹ | 0.0144 OD450 | < 3 fold | – | – | – | IC50 (pM), inhibition of VEGFA-stimulated HUVEC proliferation (CCK-8) [2]: 3940 pM; Maximum inhibition rate (%) of HUVEC proliferation [2]: 94.7%
2 | V21 (VHH, Purified with C-terminal GGGGS-6×His) VHH: QLQLVESGGGSVQPGGSLRLSCEVSGRTFTSYTMGWFRQAPGKEREFVVAISKGGYKYNTVSLEARFTISKDNTKNTVYLQMNSLKPEDTAVYYCAGTRAYGSSRLRLAETYEYWGQGTQVTVSS | 2.15 OD450 | – | – | – | 0.0186 OD450 | – | 4.62 nM | 88.3% | – | –
3 | V14 (VHH, Purified with C-terminal GGGGS-6×His) VHH: QLQLVESGGGSVQPGGSLRLSCEVSGRTFTSYTMGWFRQAPGKEREFVVAISKGGYKYNTVSLEARFTISKDNTKNTVYLQMNSLKPEDTAVYYCAGTRAYGSSRLRLANTYEYWGQGTQVTVSS | 2.03 OD450 | – | – | – | 0.0252 OD450 | – | 4.58 nM | 94.9% | – | –
4 | V18 (VHH) VHH: QLQLVESGGGSVQPGGSLRLSCEVSGRTFSSYTMGWFRQAPGKEREFVVAISKGGYKYNSVSLEARFTISKDNTKNTVYLQMNSLKPEDTAVYYCAGTRAYGSSRLRLADTYEYWGQGTQVTVSS | – | – | – | – | 0.0134 OD450 | – | – | – | 2.94 OD450 | –
5 | V8 (VHH) VHH: QLQLVESGGGSVQPGGSLRLSCEVSGRTFSSYTMGWFRQAPGKEREFVVAISKGGYKYNTVSLEARFTISKDNTKNTVYLQMNSLKPEDTAVYYCAGTRAYGSSRLKLAETYEYWGQGTQVTVSS | – | – | – | – | 0.0236 OD450 | – | – | – | 0.924 OD450 | –
6 | V19 (VHH) VHH: QLQLVESGGGSVQPGGSLRLSCEVSGRTFSSYTMGWFRQAPGKEREFVVAISKGGYKYNSVSLEARFTISKDNTKNTVYLQMNSLKPEDTAVYYCAATRAYGSSRLKLANTYEYWGQGTQVTVSS | – | – | – | – | 0.0273 OD450 | – | – | – | 2.47 OD450 | –

Now from value to binder, other results behind:

Row | OD450 [1] | Kd [3] | koff [3] | kon [3] | OD450 [4] | fold difference of KD from the positive control BI-VEGF ab [5] | IC50 [6] | Maximum inhibition rate (%) [6] | OD450 [7] | Binder | further results
7 | – | – | – | – | 0.0353 OD450 | – | – | – | 1.64 OD450 | V22 (VHH) VHH: QLQLVESGGGSVQPGGSLRLSCEVSGRTFSSYTMGWFRQAPGKEREFVVAISKGGYKYDSVSLEARFTISKDNTKNTVYLQMNSLKPEDTAVYYCAATRAYGSSRLKLADTYEYWGQGTQVTVSS | –
8 | – | 0.305 nM | 0.000108 s⁻¹ | 353000 M⁻¹ s⁻¹ | 0.0362 OD450 | < 3 fold | 7.48 nM | 92.2% | – | V40 (VHH, Purified with C-terminal GGGGS-6×His) VHH: QLQLVESGGGSVQPGGSLRLSCEVSGRTFTSYTMGWFRQAPGKEREFVVAISKGGYKYNAVSLEARFTISKDNTKNTVYLQMNSLKPEDTAVYYCAGTRAYGSSRLRLAKTYEYWGQGTQVTVSS | EC50 [8]: 2.03 nM; OD450 [9]: 3.11 OD450; EC50 [10]: 0.84 nM
9 | – | 0.62 nM | 0.000172 s⁻¹ | 277000 M⁻¹ s⁻¹ | 0.0363 OD450 | < 3 fold | 2.07 nM | 97.5% | – | V31 (VHH, Purified with C-terminal GGGGS-6×His) VHH: QLQLVESGGGSVQPGGSLRLSCEVSGRTFASYTMGWFRQAPGKEREFVVAISKGGYKYDAVSLEARFTISKDNTKNTVYLQMNSLKPEDTAVYYCAGTRAYGSSRLRLAKTYEYWGQGTQVTVSS | OD450 [9]: 2.67 OD450; EC50 [10]: 0.67 nM
10 | – | – | – | – | 0.0354 OD450 | – | – | – | 1.29 OD450 | V25 (VHH) VHH: QLQLVESGGGSVQPGGSLRLSCEVSGRTFTSYTMGWFRRAPGKEREFVVAISKGGYKYDSVSLEARFTISKDNTKNTVYLQMNSLKPEDTAVYYCAGTRAYGSSRLKLAKTYEYWGQGTQVTVSS | –
